# In US20260274975A1:
# Non-standard residues stand in square brackets, D forms with d. No end group written: not given here.
# Molecular target: Anti-Müllerian hormone Receptor 2 (AMH-R2), protein target applied to the peptide microarray (UniProt Q16671)
# Assay: peptide microarray; protein target detected by anti-GST and Alexa Fluor 647 antibody, scanned signal
# UniProt Q16671, sequence (Q16671 18-149 limits assumed): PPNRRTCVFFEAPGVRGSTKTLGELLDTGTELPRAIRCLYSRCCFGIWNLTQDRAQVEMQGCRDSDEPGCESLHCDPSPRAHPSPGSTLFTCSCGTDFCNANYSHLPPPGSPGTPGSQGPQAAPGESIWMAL
Average,Rep 1,Rep 2,Binder
56900,55700,58100,GG[dR]SVSAN[dL]Q[dR]E[dR][dK]V[dA]G [AMH receptor binding peptide SEQ ID NO: 19]
59200,60800,57500,G[dL]Y[dW]SAYNP[dW][dR]HV[dA][dL][dA]S [AMH receptor binding peptide SEQ ID NO: 18]
65500,65500,65400,[dR][dW]G[dA]SN[dK]HFAN[dA]NQ[dR][dA][dL] [NegAMHR2BP (SEQ ID NO: 4)]
47900,52300,43500,[dK]GSNA[dR][dK]N[dR][dR]D[dA]SGV[dA][dL] [AMH receptor binding peptide SEQ ID NO: 20]

# Further lines, the binder ahead of its results:
Binder,Average,Rep 1,Rep 2
EG[dL]QSSAYNNY[dW][dR][dK][dL]V[dA] [AMH receptor binding peptide SEQ ID NO: 17],61200,60200,62200
Y[dW]G[dW]SHA[dK][dA]NQFPN[dR][dL][dA] [AMH receptor binding peptide SEQ ID NO: 3],65500,65500,65500
G[dL]Q[dW]SFANGQ[dW][dR]G[dA][dL]SG [AMH receptor binding peptide SEQ ID NO: 12],63800,64600,62900
DG[dL]GSV[dL]A[dR][dK]N[dR][dR]D[dA]V[dL] [AMH receptor binding peptide SEQ ID NO: 5],65500,65400,65500
NG[dR]SQAHN[dL][dR][dK][dA]GV[dA][dL]S [AMH receptor binding peptide SEQ ID NO: 15],61500,62900,60000
